# Test results as given in article PMC11969024, “Development of chemokine network inhibitors using combinatorial saturation mutagenesis” (Communications Biology, 2025).
# B1: peptide HD2 (from tick evasin EVA4) / CXCL14 (biotinylated, synthetic) (parent)
# chain 1: EEDDYTAYAPLTCYFT
# chain 2: SKCKCSRKGPKIRYSDVKKLEMKPKYPHCEEKMVIITTKSVSRYRGQEHCLHPKLQSTKRFIKWYNAWNEKRRVYEE
# B2: peptide HD2 (from tick evasin EVA4) / CXCL11 (biotinylated, synthetic) (parent)
# chain 1: EEDDYTAYAPLTCYFT
# chain 2: FPMFKRGRCLCIGPGVKAVKVADIEKASIMYPSNNCDKIEVIITLKENKGQRCLNPKSKQARLIIKKVERKNF
# Variants of: B1
# Conditions: with CXCL14 (biotinylated, synthetic); scale: log2
row,Variant,enrichment
1,chain 1 EEDDDTAYAPLTCYFT [chain 1 Y5D],-5.31
2,chain 1 EEDDSTAYAPLTCYFT [chain 1 Y5S],-7.36
3,chain 1 EEDDRTAYAPLTCYFT [chain 1 Y5R],-5.31
4,chain 1 EEDDVTAYAPLTCYFT [chain 1 Y5V],-7.53
5,chain 1 EEDDGTAYAPLTCYFT [chain 1 Y5G],-5.37
6,chain 1 EEDDKTAYAPLTCYFT [chain 1 Y5K],-3.86
7,chain 1 EEDDYTAYAPLTRYFT [chain 1 C13R],-8.81
8,chain 1 EEDDYTAYAPLTKYFT [chain 1 C13K],-7.38
9,chain 1 EEDDYTAYAPLTQYFT [chain 1 C13Q],-7.64
10,chain 1 EEDDYTAYAPLTHYFT [chain 1 C13H],-6.91
11,chain 1 EEDDYTAYAPLTFYFT [chain 1 C13F],-6.89
12,chain 1 EEDDYTAYAPLTYYFT [chain 1 C13Y],-7.01
13,chain 1 EEDDYTAYAPLTMYFT [chain 1 C13M],-7.78

# Variants of: B2
# Conditions: with CXCL11 (biotinylated, synthetic); scale: log2
row,Variant,enrichment
1,chain 1 EEDDYTAYAPLTWYFT [chain 1 C13W],-6.78
2,chain 1 EEDDYTAYAPLTIYFT [chain 1 C13I],-5.31
3,chain 1 EEDDYTAYAPLTKYFT [chain 1 C13K],-6.26
4,chain 1 EEDDYTAYAPLTYYFT [chain 1 C13Y],-5.88
5,chain 1 EEDDYTAYAPLTRYFT [chain 1 C13R],-7.69
6,chain 1 EEDDYTAYAPLTGYFT [chain 1 C13G],-7.57
7,chain 1 EEDDYTAYAPLTDYFT [chain 1 C13D],-6.29
8,chain 1 EEDDYTAYAPLTCEFT [chain 1 Y14E],-5.9
9,chain 1 EEDDYTAYAPLTCPFT [chain 1 Y14P],-5.99
10,chain 1 EEDDYTAYAPLTCNFT [chain 1 Y14N],-4.04
11,chain 1 EEDDYTAYAPLTCMFT [chain 1 Y14M],-6.11
12,chain 1 EEDDYTAYAPLTCRFT [chain 1 Y14R],-7.23
13,chain 1 EEDDYTAYAPLTCDFT [chain 1 Y14D],-4.67
14,chain 1 EEDDYTAYAPLTCQFT [chain 1 Y14Q],-5.19
15,chain 1 EEDDYTAYAPLTCSFT [chain 1 Y14S],-6.81
16,chain 1 EEDDYTAYAPLTCIFT [chain 1 Y14I],-4.41
17,chain 1 EEDDYTAYAPLTCKFT [chain 1 Y14K],-5.3
18,chain 1 EPDDYTAYAPLTCYFT [chain 1 E2P],-4.19
19,chain 1 ECDDYTAYAPLTCYFT [chain 1 E2C],-7.15
20,chain 1 EQDDYTAYAPLTCYFT [chain 1 E2Q],-2.04
21,chain 1 ERDDYTAYAPLTCYFT [chain 1 E2R],-4.27

row,Variant,enrichment
1,chain 1 EEDDYTCYAPLTCYFT [chain 1 A7C],-6.98
2,chain 1 EEDEYTAYAPLTCYFT [chain 1 D4E],-3.08
3,chain 1 EEDGYTAYAPLTCYFT [chain 1 D4G],-3.36
4,chain 1 EEDNYTAYAPLTCYFT [chain 1 D4N],-5.1
5,chain 1 EEDAYTAYAPLTCYFT [chain 1 D4A],-5.22
6,chain 1 EEDTYTAYAPLTCYFT [chain 1 D4T],-5.01
7,chain 1 EEDHYTAYAPLTCYFT [chain 1 D4H],-4.91
8,chain 1 EEDRYTAYAPLTCYFT [chain 1 D4R],-4.23
9,chain 1 EEDKYTAYAPLTCYFT [chain 1 D4K],-4.01
10,chain 1 EEDCYTAYAPLTCYFT [chain 1 D4C],-6.38
11,chain 1 EEDDYTAYAPLTCYNT [chain 1 F15N],-3.87
12,chain 1 EEDDYTAEAPLTCYFT [chain 1 Y8E],-3.32
13,chain 1 EEDDYTACAPLTCYFT [chain 1 Y8C],-6.82
14,chain 1 EEDDYTAPAPLTCYFT [chain 1 Y8P],-5
15,chain 1 EEDDYTARAPLTCYFT [chain 1 Y8R],-5.32
16,chain 1 EEDDYTAQAPLTCYFT [chain 1 Y8Q],-3.5
17,chain 1 EEDDYTAKAPLTCYFT [chain 1 Y8K],-3.21
18,chain 1 EEDDYTAYAPLTCYFR [chain 1 T16R],-6.32
19,chain 1 EEDDYTAYAPLTCYFH [chain 1 T16H],-4.21
20,chain 1 EEQDYTAYAPLTCYFT [chain 1 D3Q],-2.12
21,chain 1 EEKDYTAYAPLTCYFT [chain 1 D3K],-2.5

row,Variant,enrichment
1,chain 1 EERDYTAYAPLTCYFT [chain 1 D3R],-4.59
2,chain 1 EEADYTAYAPLTCYFT [chain 1 D3A],-4.17
3,chain 1 EEHDYTAYAPLTCYFT [chain 1 D3H],-4.1
4,chain 1 EEEDYTAYAPLTCYFT [chain 1 D3E],-1.84
5,chain 1 EECDYTAYAPLTCYFT [chain 1 D3C],-7.03
6,chain 1 EEMDYTAYAPLTCYFT [chain 1 D3M],-4.98
7,chain 1 EEVDYTAYAPLTCYFT [chain 1 D3V],-6.48
8,chain 1 EEPDYTAYAPLTCYFT [chain 1 D3P],-4.65
9,chain 1 EEDDQTAYAPLTCYFT [chain 1 Y5Q],-2.5
10,chain 1 EEDDGTAYAPLTCYFT [chain 1 Y5G],-4.25
11,chain 1 EEDDDTAYAPLTCYFT [chain 1 Y5D],-4.19
12,chain 1 EEDDCTAYAPLTCYFT [chain 1 Y5C],-6.3
13,chain 1 EEDDRTAYAPLTCYFT [chain 1 Y5R],-4.19
14,chain 1 EEDDPTAYAPLTCYFT [chain 1 Y5P],-3.87
15,chain 1 EEDDMTAYAPLTCYFT [chain 1 Y5M],-4.78
16,chain 1 EEDDATAYAPLTCYFT [chain 1 Y5A],-4.21
17,chain 1 EEDDETAYAPLTCYFT [chain 1 Y5E],-0.621
18,chain 1 EEDDSTAYAPLTCYFT [chain 1 Y5S],-6.24
19,chain 1 EEDDVTAYAPLTCYFT [chain 1 Y5V],-6.41
20,chain 1 EEDDTTAYAPLTCYFT [chain 1 Y5T],-4.8
21,chain 1 EEDDKTAYAPLTCYFT [chain 1 Y5K],-2.74

row,Variant,enrichment
1,chain 1 EEDDYTAYAPLGCYFT [chain 1 T12G],-7.44
2,chain 1 EEDDYTAYAPLKCYFT [chain 1 T12K],-4.72
3,chain 1 EEDDYTAYACLTCYFT [chain 1 P10C],-6.86
4,chain 1 EEDDYTAYAQLTCYFT [chain 1 P10Q],-3.53
5,chain 1 EEDDYTAYARLTCYFT [chain 1 P10R],-6.22
6,chain 1 EEDDYTAYAFLTCYFT [chain 1 P10F],-6.55
7,chain 1 EEDDYTAYAKLTCYFT [chain 1 P10K],-4.1
8,chain 1 EEDDYTAYAYLTCYFT [chain 1 P10Y],-5.7
9,chain 1 EEDDYTAYAPQTCYFT [chain 1 L11Q],-3.39
10,chain 1 EEDDYTAYAPGTCYFT [chain 1 L11G],-7.39
11,chain 1 EEDDYTAYAPNTCYFT [chain 1 L11N],-5.58
12,chain 1 EEDDYTAYAPETCYFT [chain 1 L11E],-5.3
13,chain 1 REDDYTAYAPLTCYFT [chain 1 E1R],-5.11
14,chain 1 CEDDYTAYAPLTCYFT [chain 1 E1C],-6.89
15,chain 1 KEDDYTAYAPLTCYFT [chain 1 E1K],-3.21
16,chain 1 EEDDYTAYKPLTCYFT [chain 1 A9K],-3.76
17,chain 1 EEDDYTAYDPLTCYFT [chain 1 A9D],-5.37
18,chain 1 EEDDYTAYCPLTCYFT [chain 1 A9C],-7.23
